Experimental findings from US20140113322A1, “SUPRAMOLECULAR NANOBEACON IMAGING AGENTS AS PROTEASE SENSORS” (priority 2012, published 2014) are described below.

For the data set, the system named is MCF-7 cells.

For `COc1cc(N=Nc2ccc(C)cc2[N+](=O)[O-])c(C)cc1N=Nc1ccc(N(C)CCCC(=O)NCCCC[C@H](NC(=O)CNC(=O)[C@H](CC(C)C)NC(=O)[C@H](Cc2ccccc2)NC(=O)CNC(=O)c2ccc3c(c2)C(=O)OC32c3ccc(O)cc3Oc3cc(O)ccc32)C(=O)NCC(=O)N[C@@H](CCCNC(=N)N)C(=O)N[C@@H](CCCCN)C(=O)N[C@@H](CCCCN)C(=O)N[C@@H](CCCNC(=N)N)C(=O)N[C@@H](CCCNC(=N)N)C(=O)N[C@@H](CCC(N)=O)C(=O)N[C@@H](CCCNC(=N)N)C(=O)N[C@@H](CCCNC(=N)N)C(=O)N[C@@H](CCCNC(=N)N)C(=O)N2CCC[C@H]2C(=O)N2CCC[C@H]2C(=O)N[C@@H](CCC(N)=O)C(N)=O)cc1` [TFB], the “toxicity to MCF-7 cells (cell viability)” value is recorded as “little toxicity”.
